Assay: soluble on expression in E. coli; label from the status in PepcDB or PDB records

| Sequence | soluble on expression in E. coli |
| --- | --- |
| MAKEVWRFIDSGYCPPAFNMALDEALLDWHSEGKIPPTIRFYGWNPPTLSIGYFQKVEKEIDLEAVKRHGLGFVRRPTGGRGVLHDKELTYSVIVSESHPAMPKTVTEAYRVISQGILEGFRYLGLDAYFAVPRTEEEKADLRSPRSAVCFDAPSWYELVVEGRKIAGSAQTRQKGVILQHGSILLDLDEDLLFSLFKYPNERVKERLQRDFKKKAVAINELTSRTVTIEEAKEAFYKGFEKGLNIVLEPYTLTAEERAYVEELARTKYESDEWNFKR | not soluble |
| MAKIGFVSLGCPKALVDSEQILSRLKALGYETSPSYEEAELVIVNTCGFINEAVEESLEAIGEALKENGKVVVTGCLGARPEKIRERHPQVLAVTGPGEVERVLEAVQEVLPAPRDPFLDLIPPQVKLTPRHYAYVKLSEGCDHRCSFCIIPKLRGRLRSRDAADVLAEAARLVATGTKELLLVAQDLSAYGVDLGHRESLWGDRPVRAELKDLLTHMAELGVWIRLHYVYPYPHVKDLLPLMAEGKVLPYLDVPLQHASPRILRLMRRPGGYESHLKTLKAWREVVPELALRSTFIVGFPGETEEDFQILLDFLEEAELDRVGVFAYSPVEGAEANRLPDPVPEEVKEERKARLLEVQARVSLRKNQRFVGKTLEVLVDELPEPGLAVGRTYRDAPGVDGVVYVETDGTVRVGERIPVRILRADTYDLHGVQAAAALEHHHHHH | soluble |
| MAKKLSSPKEYKEFIDKFDVFLFDCDGVLWSGSKPIPGVTDTMKLLRSLGKQIIFVSNNSTKSRETYMNKINEHGIAAKLEEIYPSAYSSATYVKKVLKLPADKKVFVLGEAGIEDELDRVGVAHIGGTDPSLRRALASEDVEKIGPDPSVGAVLCGMDMHVTYLKYCMAFQYLQDPNCAFLLTNQDSTFPTNGKFLPGSGAISYPLIFSTGRQPKILGKPYDEMMEAIIANVNFDRKKACFVGDRLNTDIQFAKNSNLGGSLLVLTGVSKEEEILEKDAPVVPDYYVESLAKLAETA | soluble |
| MAKKTLPAGVKSPPYIFSPIPFLGHAIAFGKSPIEFLENAYEKYGPVFSFTMVGKTFTYLLGSDAAALLFNSKNEDLNAEDVYSRLTTPVFGKGVAYDVPNPVFLEQKKMLKSGLNIAHFKQHVSIIEKETKEYFESWGESGEKNVFEALSELIILTASHCLHGKEIRSQLNEKVAQLYADLDGGFSHAAWLLPGWLPLPSFRRRDRAHREIKDIFYKAIQKRRQSQEKIDDILQTLLDATYKDGRPLTDDEVAGMLIGLLLAGQHTSSTTSAWMGFFLARDKTLQKKCYLEQKTVCGENLPPLTYDQLKDLNLLDRCIKETLRLRPPIMIMMRMARTPQTVAGYTIPPGHQVCVSPTVNQRLKDSWVERLDFNPDRYLQDNPASGEKFAYVPFGAGRHRCIGENFAYVQIKTIWSTMLRLYEFDLIDGYFPTVNYTTMIHTPENPVIRYKRRSTHHHHHH | soluble |
| MAKNDFKFISYKDKVKKELDATAERGMTKVLMIIKAAAKSGAPVETGQLRDRIDYQLKAVGGKVVGIVGSPEQYAIYVEFGTGEFAENGSGRKGGWFFEGPDGEWHFTRGQKPQKFLRNAFRQNKEKVIEILGKEYGATFKGG | not soluble |
| MAKPDQLELLFDVAPPADPASAAPPGAPPRKTPKARPAPPAPAAIATPCPDPLPPGARWREVHTEQQPIGFVLLRSRRRSIGFVVADDGLRVTAPNWVTLGQIDDAVREKARWILAKLRDWHARKEQLAMAHTRWQAGGELPYLGKRIVLGLGAERRQACLSGDADAPCDGDTLWLALPVDADQARIRDAAQAWLQQRAGAWFGARLAHFLQLTGLRIRRWRLSSAATRWGSCTSDGNIMLNWRLIHFAPAIIDYVIAHELAHLREMNHSQDFWTEVGHILPGFEDAKNVLRRHDPATLPQFLEHHHHHH | soluble |
| MAKPILYSYWRSSCAWRVRIALALKNIDYEYRPIDLFSEESKNNAEFVKHNPAKKVPTLVINGLSLTESLAIIEYLDEAYPDPPFLPKELDKRSYSRAIALHIVASIQPLQAINIHKMLNEKEPGYGDFWCNHFVNKGFLALEELLKKHSGKYCVGDQLTIADINLPSIIYNAKIYKVDMSKYPTITRINEILAEDFRFKLAHPDNQPDAPNKN | not soluble |
| MAKQSGGKPQIDEDFMKEIISQGLPVKKQETPLVTVETPDKPETVNKEEIKAEPKEEKAVKEPARRKKNTPGDYRETYFMRVDLTDRQPLYVSRTTHEKLMKIVTVIGGRKATVSSYVENILLRHFDQFQDEINELYESKFEKPF | soluble |
| MAKTLDSPGVLVVDFGGQYAHLIARRIRELGVYSEIVPATSLDALGEALPRAAGVVLSGGPGSVWGSRHDEAAAMVLQLGKPVLGICYGHQLLAKVLGGEVGRSPLPEFGPTEVEVLDYGILLNGLPSRFKVWMSHYDAVLRPPGEAKVLARTPGSPVAAMELWGRVFGVQWHPEVRHTQYGREVLDNWLSLVGAPRTWRPGDMVSELVESVKKEVGDALAVAAVSGGVDSTVAALIAKKAIGSRLYPVFIDHGLHPEGEVERVVKLLSRLGLEPVMVDAGEEFLAALEGVGDPEEKRRVVGRVYAEVLERAARDIGAEYLVQGTIYPDVIESGARPGADTIKTHHNVGGLPKDMRLKLVEPLRYFYKDEVRLLAEKLGVPRELIWKQPVPGPGLAVRVEGPITREKLRIVRRADAIVREEVEAAGLGGKLWQYFAVLTASMATGVRGDSRSYGYVVAVRAVESVDAMTAKPAELPWWLLERIARRITSEIPEVVRVVYDITSKPPSTIEWE | soluble |
| MAKVSVVMPVYNSEKYLKESIESILNQSYSDLEFIIINDGSTDNSFKIIKEYAKLDKRINVISRENKGIVYSLNEAIRLAKGEYIARMDADDISAPKRIEKQISFLKSHRDIDILGTQVKVVGNISNDIKEKNENKLNIEFDIYDDNREKILNYWYCLAHPSVMFRKDILRELKGYNDFKSEDLDLWLRAIESGFKIYKLKEELIYFRMHEESKTRVDNQNYEGLKDGIKIKLIDVFKREFKKDFKYIVWGASNGGKITKEVLDEFFEKSQCIAFVDKFKTGEFEKIRILHPKDINHIKFDYVFIATEPGKEEAMSSLKSMGLKCIKDFLSTVLEHHHHHH | not soluble |
| MALDQSLVGRSYPPTAPYEVGREKIREFAEAVGDANPAYTDAEAAKALGHPDVIAPPTFVFSITFKAAGQVIEDPQLGLDYSRVVHGDQKFSYARPVRAGDRLTVTSTIEAIKSMAGNDILDIRGEVHDEAGEHVVTAWTKLVARAAEEALEHHHHHH | soluble |
| MALDRLREALGEALFGQEEVIEALLAVLLARGHALLEGMPGLGKTLLAESLARASGLAYKRIQFTPDLLPQDLTGSEVYREGRFVFVPGPIFAQVVLADEINRAPPKVQSALLEAMQERAVTAGGVRHPLPEPFFVIATQNPLELEGTYPLPEAQLDRFTAKIPFRPPRREVWLRILTEEPKAPEPVEVDLLKAQEEAKEVRVAKEALEAITHVAFLTQEDQRLRMGLSPRGAKAWLSLARALAYLRGKPFVDWKELKDAAFLALPHRLFLTEEALYAGESAEGVLKEALRKGGIPLEHHHHHH | soluble |
| MALGLKCFRMVHPTFRNYLAASIRPVSEVTLKTVHERQHGHRQYMAYSAVPVRHFATKKAKAKGKGQSQTRVNINAALVEDIINLEEVNEEMKSVIEALKDNFNKTLNIRTSPGSLDKIAVVTADGKLALNQISQISMKSPQLILVNMASFPECTAAAIKAIRESGMNLNPEVEGTLIRVPIPQVTREHREMLVKLAKQNTNKAKDSLRKVRTNSMNKLKKSKDTVSEDTIRLIEKQISQMADDTVAELDRHLAVKTKELLG | soluble |
| MALKNVPFRSEVLAWNSDNLADYFRKLNYRDCEKAVKKYHIDGARFLNLTENDIQKFPKLRMPLLSKLSQDINKNEERRSIFTRKPQIPRFLEETESHEEDDGGWSSFEDDYESPNDDDPDGEDDGDYESPNEEEQALVDDAADYEPPPSNNEEALQSSILPPNSFHNTNSMYIDRPPTGKVSQQPPVPPLRPKPALPPLPTGRNHSPLSPPHPNHEEPSRSGNNKTAKLPAPSIDRSTKPPLDRSLAPLDREPFILGKKPPFSDKPSAPLGREHLPKIQKPPLPPAMDRHERNERLGPVTTRKPPVPRHGRGPDRRENDEDDVHQRPLPQPSLPSMSSNTFPSRSVQPSSKNTFPLAHMPGAFSESNIGFQQSASLPPYFSQGPGNRPPLRSEGRNLPLPVPNRPQPPSPGEEETPLDEEWYVSYITRPEAEAALRKINQDGTFLVRDSSKKTANNPYVLMVLYKDKVYNIQIRYQEESQVYLLGTGLRGKEDFLSVSDIIDYFRKMPLLLIDGKNRGSRYQCTLTHAAGCL | soluble |
| MALLEICCYSMECALTAQQNGADRVELCAAPKEGGLTPSLGVLKSVRQRVTIPVHPIIRPRGGDFCYSDGEFAAILEDVRTVRELGFPGLVTGVLDVDGNVDMPRMEKIMAAAGPLAVTFHRAFDMCANPLYTLNNLAELGIARVLTSGQKSDALQGLSKIMELIAHRDAPIIMAGAGVRAENLHHFLDAGVLEVHSSAGAWQASPMRYRNQGLSMSSDEHADEYSRYIVDGAAVAEMKGIIERHQAKLEHHHHHH | soluble |
| MALMTNKTRALLIGGHGKVALLATPMLIDASVQVTSMYRNPDHRSEIEALGATTLERDVTTLSVEDWADLLKDFDVVVWSAGNGGKNGADATYAIDRDAAIASIDGAASLGEKAPRYIMVSYIGSSTHTIDPSASFYPYAESKKAADEHLSSTNLDYLILAPAALTLDEVNGVEVIADTNEAAAGRTTSRVLVAEVITEFVVRDFPQTRVLPFVDGESPLEHHHHHH | soluble |
| MALNADDEDFEWEPPSEAEMKVIQARRERQDKISKLMGDYLLKGYKMLGECCELCGTILLQDKQKKNYCVACQELDSDVDKDNPALNAQAALSQVRERQLATQPVPESNGASSSEPPLSITGQPRPEHCEGAASGLRGPPPTVQPTPLSIPTPASNFLPPSNPPVQTTPPVGSSGSSLHHHPALSSAEEAVLHKLRWATQELQHAASVEASIQLCNLIRGCAESLRSLKELQLS | not soluble |
| MALNVAPVRDTKWLTLEVCRQFQRGTCSRSDEECKFAHPPKSCQVENGRVIACFDSLKGRCSRENCKYLHPPTHLKTQLEINGRNNLIQQKTAAAMLAQQMQFMFPGTPLHPVPTFPVGPAIGTNTAISFAPYLAPVTPGVGLVPTEILPTTPVIVPGSPPVTVPGSTATQKLLRTDKLEVCREFQRGNCARGETDCRFAHPADSTMIDTSDNTVTVCMDYIKGRCMREKCKYFHPPAHLQAKIKAAQHQANQAAVAAQAAAAAATVMAFPPGALHPLPKRQALEKSNGTSAVFNPSVLHYQQALTSAQLQQHAAFIPTVPMMHSATSATVSAATTPATSVPFAATATANQIILK | soluble |
| MALPQDSVNMALFCDFENIALGVRDTKFEKFDIKPVLEKLLLKGSIVVKKAYCDWDRYKTFKAAMHEASFELIEIPHVRQSGKNSADIRLVVDALDLCYTKAHVDTFVIISGDSDFSPLVSKLRENAKRVIGVGVKNSTSDLLVANCDEFIFYDDLAR | not soluble |
| MALTEQKRVRLEKLSDENGIISALAFDQRGALKRLMVKHQTEEPTVAQMEELKVLVADELTKYASSMLLDPEYGLPATKALDEKAGLLLAYEKTGYDTTSTKRLPDCLDVWSAKRIKEEGADAVKFLLYYDVDSSDELNQEKQAYIERIGSECVAEDIPFFLEILAYDEKIADAGSVEYAKVKPHKVIGAMKVFSDPRFNIDVLKVEVPVNIKYVEGFAEGEVVYTREEAAAFFKAQDEATNLPYIYLSAGVSAKLFQDTLVFAHESGANFNGVLCGRATWAGSVEAYIKDGEAAARECVRTTGFENIDELNKVLQRTATSWKERV | soluble |
